We go through 5 molecules from patent US20250263490A1 (VIB VZW, published 2025).

Sequences and labels used below:
T1: K89D
T1 construct: also called human CI-M6PR Dom1-3His6 K89D
T1 chain: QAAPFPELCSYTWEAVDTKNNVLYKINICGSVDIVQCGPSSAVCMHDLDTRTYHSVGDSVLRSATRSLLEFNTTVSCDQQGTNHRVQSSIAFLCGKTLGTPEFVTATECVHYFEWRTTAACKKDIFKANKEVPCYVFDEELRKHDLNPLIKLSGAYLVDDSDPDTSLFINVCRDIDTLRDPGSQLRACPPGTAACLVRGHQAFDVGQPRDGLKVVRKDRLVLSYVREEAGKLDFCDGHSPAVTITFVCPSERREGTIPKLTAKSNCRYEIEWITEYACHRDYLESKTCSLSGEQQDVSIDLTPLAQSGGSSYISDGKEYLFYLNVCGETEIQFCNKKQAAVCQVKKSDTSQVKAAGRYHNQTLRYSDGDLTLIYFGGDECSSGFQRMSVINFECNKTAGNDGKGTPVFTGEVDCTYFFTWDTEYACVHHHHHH

T2: E148R
T2 construct: also called human CI-M6PR Dom1-3His6 E148F
T2 chain: T1 chain with D49K, E108F

T3: L197D
T3 construct: also called human CI-M6PR Dom1-3His6 L197D
T3 chain: T1 chain with D49K, L157D

T4: E433R
T4 construct: also called human CI-M6PR Dom1-3His6 E433R
T4 chain: T1 chain with D49K, E393R

B1: anti-CI-M6PR VHH1 (VHH)
VHH: QVQLQESGGGLVQPGGSLRLSCVASGFTFDRYWMNWLRQIPGKEIEWVSTINTGGTGTYYDDSVKGRFSISRDDAKNTLYLTMNSLKTEDTAVYYCARGATYYRGNSAIRGQGTQVTVSS
notes: His6-tagged; made in Pichia pastoris, later also in E. coli WK6
B2: anti-CI-M6PR VHH7 (VHH)
VHH: QVQLQESGGGLVQPGGSLRLSCAASGIIFSDNRMDWYRQAPGKQREWVATLASYGWKTYADSVKGRFTISRDNTKNTVYLRMNSLKPEDTAVYYCKASSPVLNDIWGQGTQVTVSS
notes: His6-tagged (Pichia pastoris)
B3: anti-CI-M6PR VHH8 (VHH)
VHH: QVQLQESGGGLVQAGGSLRLSCEASGRTFNTYNWGWFRQAPGKEREFVAAIRWSSSKTSYADSVKGRFTISRDNAKNTIYLQMNSLKPEDTAVYYCAASIVDFTTNPSHFGSWGQGTQVTVSS
notes: His6-tagged (Pichia pastoris)
B4: anti-CI-M6PR VHH5 (VHH)
VHH: QVQLQESGGGLVQAGGSLKLSCAAAGRTFSRLAMGWFRQAPGKEREFVAAISENGDSIHYSDSVKGRFAVSRDNAKNTVYLQMNSLKPEDTAIYYCAADRAAYYCSGSGCYPSRAPAAASYDYWGQGTQVTVSS
notes: as for B1
B5: anti-CI-M6PR VHH 1H11 (VHH)
VHH: QVQLQESGGGLVQPGGSLRLSCAASGIIFSDNRMDWYRQAPGKQREWVATLASYGWKTYADSVKDRFTISRDNAKNTVNLYMNSLQPEDTAVYYCNSGQYWGQGTQVTVSS
notes: made in E. coli WK6, His-tag purified

Where a chain is given by its changes, count along the chain named.

The target in the first experiment is T5, recombinant human domain 1-3His6 of the cation-independent mannose-6-phosphate receptor (human, UniProt P11717 41-467).
T5 construct: Biotinylated (NHS-PEG4-biotin) for BLI; Glycosylated; also called hDom1-3His6; hCI-M6PRD1-D3
The experiment can be described thus: ELISA on coated human CI-M6PRD1-D3, non-linear fit of the curves of FIG 36A. As to the method:
FIGS. 36A-C. […] (FIG. 36A) ELISA assay in which each construct was serially diluted and incubated on human CI-M6PR_D1-D3 and the detected absorbance (Abs) at 450 nm was set out in function of concentration. […] Graphs created in Graphpad Prism 9.0.0.
(In general: In an ELISA, binding on a coated surface is turned into a signal by an enzyme label.)
A word on the EC50: it is the concentration that produces a half-maximal response. B1: the EC50 worked out at 19 nM.
The same measure, in the same setting: the value for B2 was 0.45 nM; that for B3 was 0.16 nM; that for B4 was 65 nM.

A further experiment addresses T5, recombinant human domain 1-3His6 of the …. The experiment can be described thus: ELISA on coated antigen (100 ng), anti-VHH-HRP, A450. How it is done:
(§1) To determine the effect of site-directed mutations, an ELISA was performed. To this end, 100 ng of each successfully purified mutant was coated per well on Nunc Maxisorp plates in 50 mM MES, 150 mM NaCl, pH 6.5 buffer overnight at 4° C. […] Coating-only controls were included for background correction. […] Reactions were stopped after five minutes using a 2N H₂SO₄ solution and plates were read at 450 nm, with a 655 nm background correction. Data were analyzed using the GraphPad Prism 9 software.
In general, EC50 (read off the curve) refers to the midpoint of the concentration-response curve. Consider B1, for which the “EC50 (read off the curve)” value is approximately 10 nM.
Turning to B2, the “EC50 (read off the curve)” value was approximately 0.3 nM.
As to B3, the concentration giving a half-maximal response (EC50 (read off the curve)) was approximately 3 nM.
For B5, the “EC50 (read off the curve)” value was approximately 0.4 nM.
Regarding B4, the “EC50 (read off the curve)” value is approximately 2 nM.

For a further experiment, the target named is T1, K89D. The description is as above. As to the method: as §1
Turning to B3, the “EC50 (read off the curve)” value is approximately 3 nM.
Regarding B5, the “EC50 (read off the curve)” value is approximately 0.7 nM.
As to B4, the “EC50 (read off the curve)” value was approximately 2 nM.

The target of the next experiment is human cation-independent mannose-6-phosphate receptor, native, on cells (human, UniProt P11717 41-2491). The experiment can be described thus: cell-based or functional assay.
For the molecule B1, the “internalisation rate (live-cell imaging of AF488-VHH on MCF7 cells)” value (“internalisation rate” below) stood at 1.38e+06 summed AF-voxels/minute.
As to B2, the “internalisation rate” value is 1.26e+06 summed AF-voxels/minute.
In the case of B3, the “internalisation rate” value turned out to be 673000 summed AF-voxels/minute.
Still for that read-out and setting: as for B4, the figure is 687000 summed AF-voxels/minute.

The next experiment has as its target T2, E148R. The experiment in a line: ELISA on coated antigen (100 ng; labelled E148R on the sheet, E148F in the text), anti-VHH-HRP, A450. How it is done:
as §1
For B3, the “EC50 (read off the curve)” value is approximately 3 nM.
For B5, the “EC50 (read off the curve)” value was approximately 9 nM.
Regarding B4, the “EC50 (read off the curve)” value is approximately 2 nM.

The next experiment deals with T5, recombinant human domain 1-3His6 of the …. The experiment in a line: ELISA on coated antigen (100 ng), anti-VHH-HRP, A450. This is another data set of the same source. As to the method: as §1
On to B1, for which the “EC50 (read off the curve)” value is approximately 10 nM.
As to B2, the “EC50 (read off the curve)” value is approximately 0.3 nM.
As for B3, the “EC50 (read off the curve)” value is approximately 3 nM.
With B5, the “EC50 (read off the curve)” value was approximately 0.4 nM.
For B4, the “EC50 (read off the curve)” value is approximately 2 nM.

Another experiment addresses T3, L197D. Described as above. As to the method: as §1
Turning to B3, the “EC50 (read off the curve)” value was approximately 20 nM.
With B5, the half-maximal effective concentration (EC50 (read off the curve)) was approximately 0.4 nM.
Still for that read-out and setting: as for B4, the figure is approximately 4 nM.

A further experiment addresses T4, E433R. Described as above. As to the method: as §1
Consider B3, for which the “EC50 (read off the curve)” value is approximately 3 nM.
With B5, the “EC50 (read off the curve)” value is approximately 0.4 nM.
On the same count and under the same terms, the value for B4 was approximately 3 nM.

The target in another experiment is T5, recombinant human domain 1-3His6 of the …. The experiment in a line: BLI exp 2, dissoc pH 6.5.
By koff is commonly meant a measure of how fast the partners let go of each other. A word on the kon: it is the rate constant with which the complex forms. As for B1, the koff was found to be 0.011 s⁻¹ and the kon came out at 1.1e+06 M⁻¹ s⁻¹.
For the molecule B2, the koff worked out at 0.02 s⁻¹ and the on-rate constant (kon) was 430000 M⁻¹ s⁻¹.
B3: the koff was 0.0007 s⁻¹ and the kon was 1.2e+06 M⁻¹ s⁻¹.
